From IntAct's records for PubMed 15457209

B1: Rab GTPase-binding effector protein 1 (Homo sapiens), Q15276 (parent)
chain: MAQPGPASQPDVSLQQRVAELEKINAEFLRAQQQLEQEFNQKRAKFKELYLAKEEDLKRQNAVLQAAQDDLGHLRTQLWEAQAEMENIKAIATVSENTKQEAIDEVKRQWREEVASLQAVMKETVRDYEHQFHLRLEQERTQWAQYRESAEREIADLRRRLSEGQEEENLENEMKKAQEDAEKLRSVVMPMEKEIAALKDKLTEAEDKIKELEASKVKELNHYLEAEKSCRTDLEMYVAVLNTQKSVLQEDAEKLRKELHEVCHLLEQERQQHNQLKHTWQKANDQFLESQRLLMRDMQRMEIVLTSEQLRQVEELKKKDQEDDEQQRLNKRKDHKKADVEEEIKIPVVCALTQEESSAQLSNEEEHLDSTRGSVHSLDAGLLLPSGDPFSKSDNDMFKDGLRRAQSTDSLGTSGSLQSKALGYNYKAKSAGNLDESDFGPLVGADSVSENFDTASLGSLQMPSGFMLTKDQERAIKAMTPEQEETASLLSSVTQGMESAYVSPSGYRLVSETEWNLLQKEVHNAGNKLGRRCDMCSNYEKQLQGIQIQEAETRDQVKKLQLMLRQANDQLEKTMKDKQELEDFIKQSSEDSSHQISALVLRAQASEILLEELQQGLSQAKRDVQEQMAVLMQSREQVSEELVRLQKDNDSLQGKHSLHVSLQQAEDFILPDTTEALRELVLKYREDIINVRTAADHVEEKLKAEILFLKEQIQAEQCLKENLEETLQLEIENCKEEIASISSLKAELERIKVEKGQLESTLREKSQQLESLQEIKISLEEQLKKETAAKATVEQLMFEEKNKAQRLQTELDVSEQVQRDFVKLSQTLQVQLERIRQADSLERIRAILNDTKLTDINQLPET
partner: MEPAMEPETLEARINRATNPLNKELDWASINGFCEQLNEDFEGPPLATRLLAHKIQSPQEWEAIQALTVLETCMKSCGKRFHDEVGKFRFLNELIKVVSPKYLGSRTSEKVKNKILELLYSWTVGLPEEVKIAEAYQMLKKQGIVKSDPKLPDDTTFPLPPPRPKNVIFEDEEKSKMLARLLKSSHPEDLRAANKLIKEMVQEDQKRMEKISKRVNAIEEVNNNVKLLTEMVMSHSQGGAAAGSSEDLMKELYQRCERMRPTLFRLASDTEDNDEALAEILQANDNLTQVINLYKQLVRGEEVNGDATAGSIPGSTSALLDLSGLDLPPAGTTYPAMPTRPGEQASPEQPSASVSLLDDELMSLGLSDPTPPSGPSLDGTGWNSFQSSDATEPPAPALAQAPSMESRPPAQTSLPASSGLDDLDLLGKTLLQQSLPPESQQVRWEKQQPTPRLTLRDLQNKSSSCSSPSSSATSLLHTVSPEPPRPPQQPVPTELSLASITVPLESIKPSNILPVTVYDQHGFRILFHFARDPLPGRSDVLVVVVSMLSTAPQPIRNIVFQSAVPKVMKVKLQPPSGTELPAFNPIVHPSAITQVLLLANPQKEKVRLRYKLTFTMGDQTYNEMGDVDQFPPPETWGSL

Variants of: B1
Conditions: with gga1_human GGA1, Q9UJY5

Variant	effect of a mutation on the interaction
M563R	decreasing interaction
Q561A	decreasing interaction
Q566R	decreasing interaction
Q566A	decreasing interaction
N568R	decreasing interaction
